Measurements taken from article PMC7159909.

Assay: Co-IP and immunoblot, WSN-infected A549
Conditions: glycan lost; control: si-ctrl

B1: interferon regulatory factor-5 (IRF5): si-OGT (protein)
parent chain: MNQSIPVAPTPPRRVRLKPWLVAQVNSCQYPGLQWVNGEKKLFCIPWRHATRHGPSQDGDNTIFKAWAKETGKYTEGVDEADPAKWKANLRCALNKSRDFRLIYDGPRDMPPQPYKIYEVCSNGPAPTDSQPPEDYSFGAGEEEEEEEELQRMLPSLSLTEDVKWPPTLQPPTLQPPVVLGPPAPDPSPLAPPPGNPAGFRELLSEVLEPGPLPASLPPAGEQLLPDLLISPHMLPLTDLEIKFQYRGRPPRALTISNPHGCRLFYSQLEATQEQVELFGPISLEQVRFPSPEDIPSDKQRFYTNQLLDVLDRGLILQLQGQDLYAIRLCQCKVFWSGPCASAHDSCPNPIQREVKTKLFSLEHFLNELILFQKGQTNTPPPFEIFFCFGEEWPDRKPREKKLITVQVVPVAARLLLEMFSGELSWSADSIRLQISNPDLKDRMVEQFKELHHIWQSQQRLQPVAQAPPGAGLGVGQGPWPMHPAGMQ
For B1, the “other: ubiquitination” value was “decreases”.
